From the nanobody polyreactivity screen of Harvey et al. (2022) come the findings set out here.

This series is described as follows: yeast display, Sf9 membrane polyspecificity reagent, FACS + sequencing; frameworks hold sequencing errors. Put shortly:
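Genes from sorted yeast were amplified by colony PCR, read by MiSeq 2 × 250 sequencing and filtered on CDR length. These cells carried a synthetic nanobody library in Saccharomyces cerevisiae BJ5465 and were sorted by FACS into low and high (top ~1%) gates on anti-HA and streptavidin fluorescence. Polyreactivity is labelled according to the gate of origin.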
Take “QVQLVESGGGLFQAGGSLRLSCAASGRTFGYNVMGWYRQATGKERELVAGITSSGSTNYADSVKGRFTISRDNVKNTFYLQMNSLKPEETAVYYCAAGDRRWGFQVGYWGQGTQVTVSS”: the “polyreactivity (PSR sort gate)” value is “high polyreactivity”. As for “QVQLVESGGGLFQAGGSLRLSCAASGRTFRDYVMGWYRKATGKERELVAAISTRGASTYYADSVKGRFTISRDNAKNTVDLQMNSLKPEDTAVYYCAARSTRRGNEYDYWGQGTQVTGSS”, the “polyreactivity (PSR sort gate)” value is reported as “high polyreactivity”. For “QVQLVESGGGLFQAGGSLRLSCAASGRTFRSYAMGWYRQAPGKERELVAAISTGGSTYYADSVKGRFTISRDNAKNTVYLQMNSLKPEDTAVYYCAAEFNAYTPAGLWYTYYYWGQGTQVTVSS”, the “polyreactivity (PSR sort gate)” value is reported as “high polyreactivity”. The same measure for “QVQLVESGGGLFQAGGSLRLSCAASGRTFTWYAMGWYRQAPGKERELVAAISFSGGSTYYADSVKGRFTISRDNAKNTVYLQMNSLKPEDTAVYYCARPSGDAWEGPRMDYWGQGTQVTVSS”: “low polyreactivity”.

With “QVQLVESGGGLFQAGGSLRLSCAASGRTFWRYAMGWSRQAPGKERELVAAITSGGGSTFYADSVKGRFTISRDYAKNTVDLQMNILKAEVTAVYYCNREYRWGNSLYSRYDYWGQGTQVTVSS”, the “polyreactivity (PSR sort gate)” value was “high polyreactivity”.

Turning to “QVQLVESGGGLFQAGGSLRLSCAASGRTIQTYTMGRYRQAPGKERELYAVITTRGGRTYYADSVKGRFTISRDNAKNTFYLQINRLKPEDTGVYYCIKGIPTRSVRSYDYWGQGTQVTVSS”, the “polyreactivity (PSR sort gate)” value is reported as “high polyreactivity”.

With “QVQLVESGGGLFQAGGSLRLSCAASGSIFAGYAMGWSRQAPGNERELVATITSSSRTNYADSVKGRFTISRDNAKNTVYLQMNSLKPEDTAVYYCAATSFSVRFTRYYYWGQGTQVTVSS”, the “polyreactivity (PSR sort gate)” value is reported as “high polyreactivity”. For the sequence “QVQLVESGGGLFQAGGSLRLSCAASGSIFLYYAMGWYRQAPGKERELDATIRRRDGSTYYADSVKGRFTISRDNAKNTVYLQMNSLIPEDTAVYYCNTAGYYWLHYTMDYWGQVTQVTVSS”, the “polyreactivity (PSR sort gate)” value was “high polyreactivity”. With “QVQLVESGGGLFQAGGSLRLSCAASGSIFYNYGMAWYRHAPGKERELVAAIRASGDSTYYADSVKGRFTISRDNAKNTVYLQMNSLKPEDTEVYYCAARPNQSYYGLYYYWGQGTQVTVSS”, the “polyreactivity (PSR sort gate)” value was “low polyreactivity”. As to “QVQLVESGGGLFQAGGSLRLSCAASGSIFYYYAMGWYRQAPGKERELVAAITRSSGSTYADSVKGRFTISGDNAMYTVYVQMNSLKPEDTAVYYCATVQSDWRRNYSYYHWGQATQVTVSS”, the “polyreactivity (PSR sort gate)” value is reported as “high polyreactivity”. Turning to “QVQLVESGGGLFQAGGSLRLSCAASGSTFGTYAMGRYRPPPAKERELVAAISTGGSTYYADSVKGRFTISRDNAKNTVYLQMNSLKPEDTAVYYCAALADYVRRASDYWGQGTQVTVSS”, the “polyreactivity (PSR sort gate)” value is recorded as “low polyreactivity”. Consider “QVQLVESGGGLFQAGGSLRLSCAASGSTFGWNAMGWYRHAPGKERELVAAINKSGGRTYYADSVKGRFTISRDNAKNTVYLQMISLKPEDTAVYYCAAVTPIRVTSPDYDYWGQGTQVTVSS”, for which the “polyreactivity (PSR sort gate)” value is recorded as “low polyreactivity”. On to “QVQLVESGGGLFQAGGSLRLSCAASGSTFKFNAMGWYRQAPGKEWELVAAISNRGGTTYYADSVKGRFTISRDNAKNTVYLLMNSLKQEDTAVYYCAAGRVQYYYFWGQGTQVTVSS”, for which the “polyreactivity (PSR sort gate)” value is “high polyreactivity”. “QVQLVESGGGLFQAGGSLRLSCAASGSTFPKYEMGWYRQAPGKERELVATISSGTRTYYADSVKGRFTISRDNAKNTVYLQMNSLKPDDTAVYYCAASYQPRKGAHYGYWGQGSQVTVSS”: the “polyreactivity (PSR sort gate)” value was “high polyreactivity”. With “QVQLVESGGGLFQAGGSLRLSCAASGSTIWSYAMGWYRQAPGKERELVASITWSGGSTYADSVKGRFTISRDNAKNTVYFQMNRLKPEDTAVYYCARESTLTYYSDDFDYWGQGTQVTVSS”, the “polyreactivity (PSR sort gate)” value is given as “low polyreactivity”. The same measure for “QVQLVESGGGLFQAGGSLRLSCAASGSTLYEYAMGWYRQAPGKERELVAAINWSGGSTYYADSVKGRFTISRDNAKNTVYLQMNSLKPEDTAVYYCNRVKTGSTYRRRYWSMGYWGQGTQVTVSS”: “high polyreactivity”. In the case of “QVQLVESGGGLFQAGGSLRLSCAATGSTFSGYAMGWYRQATGKDRELVAAIASTGRTYYADSVKGRFTISRDNAKKTVYLQMNSLKPEDTAVYYCAAKRYTVYVHKYEYWGQGTKVTVSS”, the “polyreactivity (PSR sort gate)” value was “high polyreactivity”. As for “QVQLVESGGGLFQAGGSLRLSCAATGSTYIRYAMGWYRQAPGKEREFVAAITWSGTGTYYADSVKARFTISRDNAKNTVYLQMNSLKPEDTAVYYCAAEWSWVRYSFDYWGQGTQVTVSS”, the “polyreactivity (PSR sort gate)” value was “high polyreactivity”. For the sequence “QVQLVESGGGLFQAGGSLRLSCADSGRIFTSNAMGWYRQATGKVRELVAVISRRGGSTYYADSVKGRFTISRDNAKNTVYLQMNSLKPEDTAVYYCNARVYWYYPMDYWGQGTQVTVSS”, the “polyreactivity (PSR sort gate)” value is “low polyreactivity”.

As for “QVQLVESGGGLFQAGGSLRLSCAPSGRTFSHYAMGWYRQAPGKERELVAAISWSGGRTYYADSVKGRFTISRYNAKNTVYLQMNSLKPEDTAVYYCATDKVSNRRYDYWGQGTQVTVSS”, the “polyreactivity (PSR sort gate)” value is on record as “high polyreactivity”. Turning to “QVQLVESGGGLFQAGGSLRLSSAASGSIFINNGMGWYRQAPGKESELVAAIYSGGSTYADSVKGRFTISRDNAKNTVYLQMNSLKPEDTAVYYCAVDVWLRGLYGYEYDYWGQGTQVTVSS”, the “polyreactivity (PSR sort gate)” value is reported as “low polyreactivity”. As for “QVQLVESGGGLFQAGGSLRLSSAASGSTFDPYAMGWSRQAPGKERELVATITYSGGRTYYADSVKGRFTISGDNAKNTVYLQMNSLKPEDTAVYYCAVDVVYWGGDYCGQGTQVTVSS”, the “polyreactivity (PSR sort gate)” value is listed as “low polyreactivity”. As for “QVQLVESGGGLFQAGGSLRLTCAASGSIFTVYSIGLYRQAPGKERELVAGISSGAGTTYADSVKGRFTISRDNAKNTVYLQMNSLIPEVTAVYYCAAYTWDTDHYWYGYVPYDYWGQGTQVTVSS”, the entry is “low polyreactivity”; as for “QVQLVESGGGLFQAGGSLRVSCAASGRTFRVYVMGSYRQAPGKERELVAAIRASGGITYYADSVKGRFTLSRDTAKNTVYLQMNSLKPEDTAVYYCAARPRTRYDYWGQGTQVTVSS”, “high polyreactivity”; as for “QVQLVESGGGLFQAGGSLSLSCAASGRIYNPNALGWYRQAPGKERELVAAITSGDSTNYADSVKGRFTISRDNAKNTVYLEMNSLKPEDTAVYYCAADWTYPYNSWGQGTQVTVSS”, “low polyreactivity”. Take “QVQLVESGGGLFQAGGTLRLSCAATGITFRWYAMGWYRQAPGKEMELVAAITYRGGSTHYSDSVKGRFTISRDNAKNTVYLQMNSLKPEDTAVYYCAVRRWPRYRWSDYWGQGTQVTLSS”: the “polyreactivity (PSR sort gate)” value is on record as “low polyreactivity”. Take “QVQLVESGGGLFQAGRSLRIRCAASGRILNVYHMGWYRQAPGKERELVAAISSGANTNYAESVKGRFTISRDNAKNTVDLQMNSLKPEDTEVYFCNTEQFYDYDYTFDYWGQGTQVTVSS”: the “polyreactivity (PSR sort gate)” value is listed as “low polyreactivity”. Take “QVQLVESGGGLFQAGVSLRLSCAASGSTFDYYAMGWYRQPPAKERELVAAIRYRGGRTYYADSVKWRFTISRDNAKNTVYLQLNSLKPEDTAVYYCAALTIQSSKTYDYWGQGTQVTVSS”: the “polyreactivity (PSR sort gate)” value is recorded as “low polyreactivity”. Turning to “QVQLVESGGGLFQAVGSLRLSCAASGSTFIPNAMGWYRQAPGKERELVADISYSGGTTYYADSVKGRFTISRDNAKKTVYLQMNSLKPEDTSVYYCAAVYYTSFYSWPPYDYWGQGTQVTVSS”, the “polyreactivity (PSR sort gate)” value is given as “low polyreactivity”. With “QVQLVESGGGLFQEGGSLRLSCAPSGSTLVFYAMGWYRHAPGKERELVAAITRSGGSTYYADSVKGRFTISRDNAKNTVYLQRNSLKPEDTAVYNCAADERYINERVSWGQGTQVTVSS”, the “polyreactivity (PSR sort gate)” value is on record as “low polyreactivity”.

“QVQLVESGGGLGHAGGSLRLSCAASGSIFFWYAMGWYRQAPGKERELVAAITQRTGSTYYADSVKGRFTISRDNAKNTVYLQMNSLKPEDTAVYYCAGKRWRRSFTGNYWGLGTQVTVSS”: the “polyreactivity (PSR sort gate)” value was “high polyreactivity”. As for “QVQLVESGGGLGQAGASLRLICAPSGSIFLIYCMGWYRQSPGKERELVAAITARGGSTYYADSVKGSFTISRDNAKNTVYLQMNSLKPEDTSVYYCNDVGYPDVGAGTYGYWGQGTQVTVSS”, the “polyreactivity (PSR sort gate)” value is reported as “low polyreactivity”. Consider “QVQLVESGGGLGQAGGRLRLSCAASGIYYNAMGWYRQAPGNERELVAAITTGDRTNYADSVKGRFTISRDNAKNTVYLQMNSLKPEDTAVYYCNAVVERLSSTARDFAYDYWGQGTQVTVSS”, for which the “polyreactivity (PSR sort gate)” value was “low polyreactivity”. With “QVQLVESGGGLGQAGGSLRLSCAASGFTFYYYAMGWYRQAPGKERELVAAISYSGGSTYYADSVKGRFTISRDNAKNTVYLQMNSLKPEDTARYYCAADLSTYSRGFDYWGQGTQVTVSS”, the “polyreactivity (PSR sort gate)” value is recorded as “high polyreactivity”. On to “QVQLVESGGGLGQAGGSLRLSCAASGFTIIYYAMGWYRQAPGKERELVAAISRRGGRTYYADSVKGRFTISRDNAKNTVYLQMNSLKPEDTAVYYCAADGSGTSISYRYKHDYWGQGTQVTVSS”, for which the “polyreactivity (PSR sort gate)” value is “high polyreactivity”. As for “QVQLVESGGGLGQAGGSLRLSCAASGIIFQYYAMGWYRPAPGKERELVAVISSSGTNTYYADSVKGRFTISRDNAKNTVYLQMNSLKPEDTAVYYCNKVYRWFTRFDYWGQGTQVTVSS”, the “polyreactivity (PSR sort gate)” value is “high polyreactivity”. In the case of “QVQLVESGGGLGQAGGSLRLSCAASGRIFNTYAMGWYRQAPGKERELVAAITRSAGRTYYADSVKGRFTISRDNAKNTGYLQMNSQKPEDTAVYYCAAQYNYGQRSGPYGYWGQGTQVTVSS”, the “polyreactivity (PSR sort gate)” value is given as “low polyreactivity”. As to “QVQLVESGGGLGQAGGSLRLSCAASGRTITFNTMGWYRPAPGKERELVAGIDRGGSTNYADSVKGRFTISRDNAKNTVDLQMNSLKPEDTAVYYCAARNLRYRYRNYDYWGQGTQVTVSS”, the “polyreactivity (PSR sort gate)” value is “high polyreactivity”. With “QVQLVESGGGLGQAGGSLRLSCAASGSIFAGNAMGWYRQAPRKERELVAAISRRGGSTYYADSVKGRFTISRDNAKNTVYLQMNSLKPEDTAVYYCNALLRYAYHAAYGYWGQGTQVTVSS”, the “polyreactivity (PSR sort gate)” value was “high polyreactivity”. For “QVQLVESGGGLGQAGGSLRLSCAASGSIFPAYAMGCYRQAPGKERELVAAITFSGGSTYYADSVKGRFTISRDNAKNTVYLQMNSLKPEDTAVYYCATDSYGWRFNRAITSYGGDYWGQGTQVTVSS”, the “polyreactivity (PSR sort gate)” value is on record as “low polyreactivity”.

As for “QVQLVESGGGLGQAGGSLRLSCAASGSIFPEYVMGWNRQAPGKERELVAAISWSGGSTYYADSVKGRFTISRDNAKNPVFLQMNSLKPEDTAVYYCNRVPSWRIDYDYWGQGTQVTVSS”, the “polyreactivity (PSR sort gate)” value is “low polyreactivity”.
